Columns and labels:
[1] = biological target: T1, SARS-CoV-2 Wuhan-Hu-1 RBD (SARS-CoV-2, Wuhan-Hu-1 (GenBank …, UniProt P0DTC2)); assay: cell-based or functional assay
[2] = biological target: T1, SARS-CoV-2 Wuhan-Hu-1 RBD; assay: BLI; details: both partners purified

Binder | neutralisation IC50, Wuhan-Hu-1 pseudovirus [1] | binding result [2]
JR177 (antibody, V domains shown) VH: QVQLVESGGGVVQPGRSLRLSCAASGFTLSSYAMHWVRQAPGKGLEWVALILYDGSNKYYADSVKGRFTISRDNSKNTVYLQMNSLRAEDTAVYYCARVRVWGRVVVAASFYYGMDVWGQGTTVTVSS VL: not shown | 3.28 ng/mL | binds
JR043 (antibody, V domains shown) VH: QVQLVQSGAEVKKPGASVKVSCKASGYTFTRNYMHWVRQAPGQGLEWMGIINPSGGSTSYAQKFQGRVTMTRDTSTSTVYMELSSLRSEDTAVYYCARVDSSSWSHCDYWGQGTLVTVSS VL: DIQLTQSPSSLSASVGDRVTITCRASQSISTYLNWYQQNPGKAPKLLIYGASNLQSGVPSRFSGSGSGTDFTLTISSLQPEDFATYYCQQSYSTLEITFGQGTRLEIK | 5.87 ng/mL | binds
JR233 (antibody, V domains shown) VH: QVQRVQSGAEVKKPGSSVKVSCKASGGTFSSYAFSWVRQAPGQGLEWMGGIIPILRIADYAQKFQGRVTITADKSTSTAFMELSSLRSEDTAVYYCARGQIELVPAARVDYFDYWGQGTLVTVSS VL: DIQLTQSPSSLSASVGDRVTITCRASQSISSYLNWYQQKPGKAPKLLIYAASSLQSGVPSRFSGSGSGTDFTLTISSLQPEDFATYYCQQSYTTSFGPGTKVDIK | 9.33 ng/mL | binds
JR309 (antibody, V domains shown) VH: EVQLVESGGGLVQPGRSLRLSCAASGFTFDDYAIHWVRQAPGKGLEWVSGSSWNSGTIGYADSVKGRFTISRDNAKNSLYLQMNSLRAEDTALYYCAKDWGTGDYNSYYFDYWGQGTLVTVSS VL: SYELTQPPSVSVAPGKTARITCGGNNIGSKSVHWYQQKPGQAPVVVVYDDSDRPSGNPERFSGSNSGNTATLTIRRVEAGDEADYYCQVWDSNSDQYVFGTGTKVTVL | 15.5 ng/mL | binds
JR173 (antibody, V domains shown) VH: EVQLVESGGGLVQPGRSLRLSCAASGFTFDDYAMHWVRQAPGKGLEWVSGISWNSGRKGYADSVKGRFTISRDNAKNSLHLQMNSLRAEDTALYYCAKDIQEAIEVSSIGFDYWGQGTLVTVSS VL: QSVLTQPPSVSGAPGQRVTISCTGSSSNIGAGYDVHWYQQLPGTAPKLLIYGNSNRPSGVPDRFSGSKSGTSASLAITGLQAEDEADYYCQSYDSSLSGYAVFGGGTQLTVL | 16.6 ng/mL | binds
JR042 (antibody, V domains shown) VH: EVQLVESGGGLIQPGGSLRLSCVASGVTVSSNYMSWVRQAPGKGLEWVSVIYPGGTTYYADSVKGRFTISRDNSKNTLYLQMTSLRAEDTAVYYCARGGDYHYGMDVWGQGTTVTVSS VL: DIQLTQSPSFLSASVGDRVTITCRASQGISSYLAWYQQKPGKAPKLLIYAASTLQSGVPSRFSGSGSGTEFTLTISSLQPEDFATYYCQLLNSYPPTFGQGTKLEIK | 20.9 ng/mL | binds
JR039 (antibody, V domains shown) VH: QLQLQESGPGLVKPSETLSLTCTVSGGSISSSSYYWGWIRQPPGKGLEWIGSIYYSGSTYYNPSLKSRVSISVDTSKNQFSLKLSSVTAADTAVYYCARPGPAYYDRSGYYRAEYFQRWGQGTLVTVSS VL: AIRMTQSPSSLSASVGDRVTITCQASQDISDYLSWYQQKPGKAPKLLIYDASNLETGVPSRFSGSGSGTDFTFTISSLQPEDIATYYCQQYDNLPLTFGGGTKVEIK | 21.9 ng/mL | binds
JR086 (antibody, V domains shown) VH: QVQLVQSGAEVKKPGASVKVSCKASGYTFTGYYMHWVRQAPGQGLEWMGWINPISGATNYAQKFQGGVTMTRDTSISTAYMELSRLRSDDTAVYYCARVNHIVVVTAIDPIYGMDVWGQGTTVTVSS VL: QSALTQPASVSGSPGQSITISCTGTSSDVGGYNYVSWYQQHPGKAPKLMIYEVSNRPSGVSNRFSGSKSGNTASLTISGLQAEDEADYYCSSYTSSSTLYYVFGTGTKVTVL | 35.8 ng/mL | binds
JR088 (antibody, V domains shown) VH: QVQLQQSGPGLVKPSQTLSLTCAISGDSVSSDSAAWNWIRQSPSRGLEWLGRTYYRSKWSNDYEVSVKSRITINPDTSKNQFSLQLNSVTPEDTAVYYCAKQQLVLDDAFDIWGQGTMVTVSS VL: QSALTQPRSVSGSPGQSVTISCTGTSSDVGGHNYVSWYEQHPGKAPKLMMYDVSKRPSGVPDRFSGSKSGNTASLTISGLQAEDEADYYCCSYAGSYIWVFGGGTKLTVL | 38.1 ng/mL | binds
JR215 (antibody, V domains shown) VH: QVQLVQSGAEVKKPGASVKVSCKASGYTFTGYYMHWVRQAPGQGLEWMGRINPNSGDTNFPQKFQGRVTMTRDTSISTAYMELSRLRSDDTAVYYCARDGVADFNYDYWGQGTLVTVSS VL: LTQPASVSGSPGQSITISCTGSSSDVGSYNLVSWYQQHPGKAPKLMIYEVSRRPSGVSNRFSGSKSGNTASLTISGLQAEDEADYYCCSYAGSSTWEVLFGGGTKLTVL | 44.8 ng/mL | binds
JR216 (antibody, V domains shown) VH: QLQLQESGPGLVKPSETLSLTCTVSGGSISSGSYFWGWIRQPPGKGLEWIGNIYNSGSTYYSPSLKSRVTISVNTSKNQFSLKMSSVTAADTAVYYCARQPWLRSQFDYWGQGTLVTVSS VL: NFMLTQPHSVSESPGKTVTISCTGSSGSIASNYVQWYQQRPGSAPTNVIYEDNQRPSGVPDRFSGSIDSSSNSASLTISGLKTEDEADYYCQSYDSSTVVFGGGTKLTVL | 45.8 ng/mL | binds
JR041 (antibody, V domains shown) VH: EVQLVESGGGLVQPGRSLRLSCAASGFTFDDYAMYWVRQAPGKGLEWVSGISWNSGSIGYADSVKGRFTISRDNAKNSLYLQMNSLRAEDTALYYCAKDISYHTGTIDYWGQGTLVTVSS VL: QSALTQPASVSGSPGQSITISCTGTSSDIGGYNYVSWYQQHPGKAPKLMIYDVSNRPSGVSNRFSGSKSGNTASLTISGLQAEDEADYYCSSYTSSSTLGVGGGTKLTVL | 54.7 ng/mL | binds
JR174 (antibody, V domains shown) VH: QVQLVQSGAEVKKPGSSVKVSCKASGGTFSSYAISWVRQAPGQGLEWMGGIIPIFGTAHYAQKFQGRVTITADESTSTAYMELSSLRSEDTAVYFCARDLGGIQLYLLAYWGQGTLVTVSS VL: EIVLTQSPVTLSLSPGERATLSCRASQSVSSTYLAWYQQKPGQAPRLLIYGASSRATGIPDRFSGSGSGTDFTLTISRLEPEDFAVYYCQQYVGSPGTFGQGTKVEIK | 79.8 ng/mL | binds
JR210 (antibody, V domains shown) VH: EVQLVESGGGLVQPGGSLRLSCAASGFTFSNYWMTWVRQAPGKGLEWVANIKQDGSEKYYVDSVKGRFTISRDNAKNSLYLQMNSLRAEDTAVYYCARDLAVAISWFDPWGQGTLVTVSS VL: NFMLTQPHSVSESPGKTVTMSCTRSSGSIASNYVQWYQQRPGSSPTTVIYEDNQRPSGVPDRFSGSIDSSSNSASLTISGLKTEDEADYYCHSYDSPRVVFGGGTKLTVL | 89.7 ng/mL | binds
JR092 (antibody, V domains shown) VH: QVQLVESGGGLVKPGGSLRLSCAASGFTFSDYYMSWIRQAPGKGLEWVSYSSSRGSIIHYADSVKGRFTISRDNAKNSLCLQMNSLRAEDTAVYYCARATTPYSGYSMWGQGTLVTVSS VL: NFMLTQPHSVSESPGKTVTISCTGSSGSIASNYVQWYQQRPGSAPTTVIYEDNQRPSGVPDRFSGSIDSSSNSASLTISGLKTEDEADYYCQSYDSSNWVFGGGTKLTVL | 109 ng/mL | binds
JR093 (antibody, V domains shown) VH: QVQLVQSGAEVKKPGSSVKVSCKASGGTFSSYAISWVRQAPGQGLEWMGRIVPILNIANYAQRFQGRVTITADKSTSTAYMELSSLRSEDTAVYYCASPGSLLLGERIDELQFDYWGQGTLVTVSS VL: not shown | 131 ng/mL | binds
JR212 (antibody, V domains shown) VH: QVQLVQSGAEVKKPGSSVKVSCKASGGTFSNYAISWVRQAPGQGLEWMGGIIPLFGTTNYAQKFQGRVTITADESTSTAYMELSSLRSEDTAMYYCASYSSGYHLVTDYWGQGTLVTVSS VL: EIVLTQSPGTLSLSPGERATLSCRASQSVTSSYLAWYQQKPGQAPRLLIYGASSRATGIPDRFSGSGSGTDFTLTISRLEPEDFAVYYCQQYGTSRTFGQGTKVEIK | 178 ng/mL | binds
JR310 (antibody, V domains shown) VH: EVQLVESGGGLIQPGGSLRLSCAASGFTVSSNYMSWVRQAPGKGLEWVSVIYSGGSTYYADSVKGRFTISRDNSKNTLYLQMNSLRAEDTAVYYCARGDPSDYYYYGMDVWGQGTTVTVSS VL: QSVLTQPPSVSGAPGQRVTISCTGSSSNIGAGYDVHWYQQLPGTAPKLLIYGNSNRPSGVPDRFSGSKSGTSASLAITGLQAEDEADYYCQSYDSSLSGSGVFGTGTKVTVL | 219 ng/mL | binds
JR049 (antibody, V domains shown) VH: EVQLVESGGGLVQPGGSLRLSCAASGFTFSSYDMHWVRQVTGKGLEWVSGIGTAGDTYYRDSVKGRFTISRENAKKSLYLQMNSLRAGDTAVYYCARDNGALYYYGSGAMDVWGKGTTVTVSS VL: not shown | > 1000 ng/mL | binds
JR090 (antibody, V domains shown) VH: QVQLQQWGAGLLKPSETLSRTCAVYGGSFSGHYWSWIRQPPGKGLEWIGEINHSGSTNYNPSLKSRVTISVDTSKNQFSLKLSSVTAADTAVYYCARGSRAVAGTAVYFDLWGRGTLVTVSS VL: not shown | > 1000 ng/mL | binds
JR328 (antibody, V domains shown) VH: EVQLVESGGGLIQPGGSLRLSCAASGVIVSRNYMSWVRQAPGKGLEWVAVIYSGGSTFYADSVKGRFTISRDDSKNTLFLQMNALRAEDTAVYYCARDGDYYGMDVWGRGTTVTVSS VL: DIQLTQSPSFLSASVGDRVTITCRASQGISNYLAWYQQKPGTAPRLLIYAAFTLQSGVPSRFSGSGSGTEFTLTISSLQPEDFATYYCQQLNTYPGFTFGPGTKVDIK | 16.7 ng/mL | –

From article PMC9253517 (The Journal of Experimental Medicine, 2022)
